Experimental data reported in patent US20230095569A1 (ANTENGENE BIOLOGICS, published 2023).

Key:
[1] = target: T1, human Claudin18.2 (CLDN18.2) (human, UniProt P56856 1-261); assay: FACS on CHOK1-18.2 cells;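 note: antibody binding to the cells detected with a fluorescently labelled secondary antibody and read out as median fluorescence intensity by flow cytometry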
T1 construct: the cell line is named under assay; also called human Claudine18.2; hClaudin18.2
Protocol: (§1) The specificity and cross-reactivity of these subclones were confirmed with FACs analysis. […] Fluorescent dye-conjugated secondary antibody was used to detect the binding of the primary antibody with the cells. Median fluorescence intensity (MFI) was measured by FACs analysis.

[2] = target: T2, human Claudin18.1 (CLDN18.1) (human, UniProt P56856 1-261); assay: FACS on CHOK1-18.1 cells;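 for FACS MFI: test antibody binding to the cells detected by flow cytometry using a fluorescent dye-labelled secondary antibody, read out as median fluorescence intensity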;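 for result: antibody binding to cells detected with a fluorescently labelled secondary antibody, read out as median fluorescence intensity (MFI) by flow cytometry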
T2 construct: whole, on cells; also called human Claudine18.1
Protocol: as §1

[3] = target: T2, human Claudin18.1 (CLDN18.1); assay: FACS on CHOK1-18.1 cells; remark: listed apart in the source;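 for FACS MFI: test antibody binding to the cells detected by flow cytometry using a fluorescent dye-labelled secondary antibody, read out as median fluorescence intensity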;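 for result: antibody binding to cells detected with a fluorescently labelled secondary antibody, read out as median fluorescence intensity (MFI) by flow cytometry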
Protocol: as §1

| Binder | FACS MFI [1] | binding result [2] | FACS MFI [3] |
| --- | --- | --- | --- |
| Ab02 (antibody, V domains shown, mouse monoclonal (hybridoma)) VH: QVQLKESGPGLVAPSQSLSITCTVSGFSLTSYAINWVRQPPGKGLEWLGVIWTGGGTNYNSALKSRLSINKDNSKSQVFLKMNSLQTDDTARYYCARFYDGYYSWFAYWGQGTLVTVSA VL: DIVMTQSHKFMSTSVGDRVSITCKASQDVGTAVTWYQQKPGQSPKLLIYWASTRHTGVPDRFTGSGSGTDFTLTISNVQSEDLADYFCQQYSSYPFTFGSGTKLEIK | 1380 | no binding | 101 |
| Ab17 (antibody, V domains shown, mouse monoclonal (hybridoma)) VH: QVQLKESGPGLVAPSQSLSITCTVSGFSLTSYAISWVRQPPGKGLEWLGEIWTGGGTNYNSALKSRLSISKDNSKSQVFLKMNSLQTDDTARYYCGRLSYGNSLDYWGQGTTLTVSS VL: DIVMTQSPSSLTVTAGEKVTMSCKSSQSLLNSGNQKNYLTWYQQKPGQPPKLLIYWASTRESGVPDRFTGSGSGTDFTLTVSSVQAEDLAVYYCQNNFIYPLTFGPGTKLELK | 11500 | no binding | 82.3 |
| Ab09 (antibody, V domains shown, mouse monoclonal (hybridoma)) VH: EVQLQQSGPELVKPGTSVKMSCKASGYTFTDYNMHWVKLSHGKSLEWIGYINPNNGGTIYNQRFKGKATLTVNKSSRTAYMDLRSLTSEDSAVYYCARQGYYGNSMDYWGQGNSVTVSS VL: DIVMTQSPSSLTVTPGERVTMSCKSSQSLLNGGNQRNYLTWYQQKPGQPPKLLIYWASTRESGVPDRFAGSGSGTDFTLTISRVQAEDLSFYYCQNSYFYPFTFGSGTKLDLR | 17100 | no binding | 95.6 |
| Ab12 (antibody, V domains shown, mouse monoclonal (hybridoma)) VH: EVMLVESGGGLVKPGGSLKLSCAASGFTFSSYTMSWVRQTPEKRLEWVATIIGGYGNTYYADSVKGRFTISRDSAKNTLYLQMLSLRSEDTALYYCTRLGQTQRNAMDYWGQGTSVTVSS VL: DILMTQSPSSLSVSAGEKVTMSCKSSQSLLNSGNQRNYLAWYQQKPGQPPKLLIYGASTRESGVPDRFTGSGSGTDFTLTISSVQAEDLAVYYCQNDYYYPLTFGAGTKLELK | 8820 | no binding | 83.8 |
| Ab16 (antibody, V domains shown, mouse monoclonal (hybridoma)) VH: EVMLVESGGGLVKPGGSLKLSCAASGFTFNSYTMSWVRQTPEKRLEWVATITVIGGNTYYLDSVKGRFTISIDNGKNTLYLQMSSLRSEDTALYYCARMGQTQRNAMDYWGQGTSVTVSS VL: DIVMTQSPSSLSVSAGQKVTMRCKSSQSLLNSGNQKNYLAWYQQKLGQPPKLLIYGASTRESGVPDRFSGSGSGTDFTLTITSVQAEDLAVYYCQNDYSFPLTFGAGTKLELK | 8170 | no binding | 80.8 |
| Ab13 (antibody, V domains shown, mouse monoclonal (hybridoma)) VH: EVRLVESGGGLVKPGGSLKLSCAGSGFTFSSYTMSWVRQTPEKRLEWVATITIGVNIYYLDSVKGRFTISRDNAKNTLYLQMNSLRSEDTALYYCTRLGQTQRNAMDYWGQGTSVTVSS VL: DIVMTQSPTSLSVSAGEKVTMTCKSSQSLLNSGNQKNYLAWYQEKPGQPPKLLIYGASTRESGVPDRFTGSGSGTDFTLTISSVQAEDLAVYYCQNNHFYPLTFGAGTKLELK | 7460 | no binding | 82.3 |
| Ab15 (antibody, V domains shown, mouse monoclonal (hybridoma); also called mAb Ab15) VH: EVMLVESGGDLVKPGGSLKLSCAASGFTFSTYTMSWVRQTPEKRLEWVATIVGGGGYTYYLDSVKGRFTISRDNAKNTLYLQMISLRSEDTALYYCARMGLTQRNALDYWGQGTSITVSS VL: DIVMTQSPSSLSVSEGEKVTLNCKSSQSLFNSGNQKNYLAWYQQKPGQPPKLLIYGASTRESGVPDRFTGSGFGTDFTLTISSVQAEDLAVYYCQNDHTYPLTFGAGAKLELK | 7390 | no binding | 80.8 |
| Ab05 (antibody, V domains shown, mouse monoclonal (hybridoma)) VH: DVKLVESGEDLVKPGGSLKLSCAASGFTFSNYAMSWVRQTPEKRLEWVAYVSSGGDYIYYADTVKGRFIISRDNARNTLYLQMNSLRSEDTAMYYCARVYFGNSLDYWGQGTTLTVSS VL: DIVMTQSPSSLTVTAGEKVTLSCKSSQSLLNGGNQKNYLTWYQQRPGQPPKLLIYWASTRESGVPDRFTGSGSGTDFTLIISSVQAEDLAVYYCQNDYYYPWTFGGGTKLEIK | 16000 | no binding | 97 |
| Ab08 (antibody, V domains shown, mouse monoclonal (hybridoma)) VH: QVQLQQPGAELVKPGASVKLSCKASGYTFTSYLLHWVKQRPGQGLEWIGMIHPNGGSTNYNEKFKTKATLTVDKSSSTAYMQLSSLTSEDSAVYYCAPVYFGNSFAYWGQGTLVTVSA VL: DIVMTQSPSSLTVTAGEKVTMSCKSSQSLLNSGNQKNYLTWYQQKPGQPPKLLIYWASTRESGVPDRFTGSGSGTDFTLTISSVQAEDLAVYYCQNDYYYPFTFGSGTKLEKK | 19400 | no binding | 97 |
| Ab06 (antibody, V domains shown, mouse monoclonal (hybridoma)) VH: EVQLVASGGGLVKPGGSLKLSCAASGITFRSYAMSWVRQTPEKRLEWVATITDGGSYIFYPDNVKGRFTISGDHAKNNLYLQMSHLKSEDTALYFCVRLYYGNSFAYWGQGTLVTVSA VL: DIVMTQSPSSLTVTAGEKVTLNCKSSQSLFNSGNQKNYLTWYQQKPGQPPKLLIYWASTRESGVPDRFTGSGSGTDFTLTFSSVQAEDLAVYYCQNAYIYPFTFGSGTKLEIK | 46100 | no binding | 789 |
| Ab14 (antibody, V domains shown, mouse monoclonal (hybridoma)) VH: QVQLQQPGAELVKPGASVKLSCKASGYTFTSYLLHWVKQRPGQGLEWIGMIHPNGGSTNYNEKFKTKATLTVDKSSSTAYMQLSSLTSEDSAVYYCAPVYFGNSFAYWGQGTLVTVSA VL: DIVMTQSPSSLTVTAGEKVTMSCKSSQSLLNSGNQKNYLTWYQQKPGQPPKLLIYWASTRESGVPDRFTGSGSGTDFTLTISSVQAEDLAVYYCQNDYYYPFTFGSGTKLEKK | 21400 | no binding | 97 |
| Ab35 (antibody, V domains shown, mouse monoclonal (hybridoma)) VH: DVFLQESGPGLVKPSQSLSLTCTVTGYSITSDYAWNWIRQFPGNKLEWVTYIGYSGTTSYNPSLKSRISITRDTSKNQFFLQLNSVSTEDTATYYCVRRGSYYGSYWFFDVWGAGTTVTVSS VL: QVVLSQSPAILSASPGEKVTMTCRASSSVSYMHWYQQKPGSSPKPWIYATSNLASGVPPHFSGSGSGTSYSLTISRVEAEDAATYYCQQWTSNPPTFGGGTKLEIK | 11300 | no binding | 92.6 |
| Ab07 (antibody, V domains shown, mouse monoclonal (hybridoma)) VH: EVQLQQSGPELVKPGASVKISCKASGYSFTDYFMNWVKQSHGKGLEWIGRINPYNGDTFYNQKFKGKATLTVDKSSSTAHMELLSLTSEDFAVYYCALYDGYWGAFVYWGQGTLVTVSA VL: DIQMTQSPASLSVFVGETVTITCRASENIYSNLAWYQQKQGKSPQLLVYAATNLADGVPSRFSGSGSGTQYSLKINSLQSEDFGSYYCQHFWGTPLTFGAGTKLELK | 13700 | no binding | 764 |
| Ab11 (antibody, V domains shown, mouse monoclonal (hybridoma)) VH: EVMLVESGGDLVKPGGSLKLSCAASGFTFSRYTMSWVRQTPEKRLEWVATVSVGSGNTYYLDSVKGRFTISRDNAKNTLFLQMNSLRSEDTALYYCTRLGQTQRNAVDYWGQGTSVTVSS VL: DIVMTQSPSFLSVSAGEKVTMSCKSSQSLFNGGNQKNYLAWYQQKPGQPPKLLIYGASTRDSGVPDRFTGSGSGTDFTLTISNVQAEDLAIYFCQNDHSFPLTFGAGTKLELK | 9800 | no binding | 80.8 |
